Columns and labels:
[1] = molecular target: cellular RAGE on human cells (HUVEC, Molt-4 cells, PBMC, Jurkat cells) (human) (UniProt Q15109); assay: cell-based or functional assay
[2] = molecular target: purified soluble human RAGE (sRAGE), prepared from a baculovirus expression system (human) (UniProt Q15109); assay: binding to immobilised RAGE in wells
[3] = molecular target: RAGE on macrophages / macrophage-like cultured BV2 cells (MP RAGE) (UniProt Q62151); assay: binding to macrophages in culture wells
[4] = molecular target: RAGE on cultured bovine aortic endothelial cells (BAEC RAGE) (bovine) (UniProt Q28173); assay: binding to endothelial cells in culture wells
[5] = molecular target: T1, purified soluble human RAGE (sRAGE), prepared from a baculovirus expression system (human, UniProt Q15109 23-342); assay: elution from RAGE-Affi-gel resin; radioligand binding assay
T1 construct: extracellular domain; Adsorbed to plastic wells at 5 µg/well or to Affi-gel resin; also called soluble RAGE; human soluble RAGE
From the text: Isolation and purification of EN-RAGE. Bovine lung acetone powder (SIGMA@) was subjected to solubilization in buffer containing tris (0.02M, pH 7.4); NaCl (0.15M); octyl-β-glucoside (1%); and protease inhibitors (PMSF and aprotinin). After serial chromatography onto SP sepharose (Pharmacia LKB®), and affi-gel 10 resin (BIO-RAD®) to which had been adsorbed purified soluble human RAGE (prepared from a baculovirus expression system), RAGE-binding proteins were identified based on a screening assay employing immobilized column fraction (Nunc Maxisorp dishes) (NUNC®) and ^125-I-labelled sRAGE as above. After elution with heparin-containing buffer (1 mg/ml), positive fractions were identified. RAGE-binding proteins were subjected to sequence analysis.

[6] = molecular target: cellular RAGE on human cells (HUVEC, Molt-4 cells, PBMC, Jurkat cells) (human, UniProt Q15109 23-404); assay: cell-based or functional assay
[7] = molecular target: T2, RAGE on cultured bovine aortic endothelial cells (BAEC RAGE) (bovine, UniProt Q28173 23-416); assay: radioligand binding on cultured bovine aortic endothelial cells
T2 construct: whole, on cells; also called BAECs; endothelial (EC) RAGE
T2 sequence (looked up): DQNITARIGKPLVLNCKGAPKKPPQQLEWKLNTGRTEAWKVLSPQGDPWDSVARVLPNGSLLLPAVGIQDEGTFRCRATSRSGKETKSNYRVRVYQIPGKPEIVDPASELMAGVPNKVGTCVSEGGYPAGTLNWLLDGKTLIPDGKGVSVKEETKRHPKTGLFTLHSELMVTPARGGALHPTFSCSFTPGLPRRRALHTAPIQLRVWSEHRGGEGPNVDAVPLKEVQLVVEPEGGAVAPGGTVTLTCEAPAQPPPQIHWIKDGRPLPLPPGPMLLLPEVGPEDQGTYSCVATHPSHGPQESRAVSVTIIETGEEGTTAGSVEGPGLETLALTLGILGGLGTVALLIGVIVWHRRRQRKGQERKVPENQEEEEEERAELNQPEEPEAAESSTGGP
Experimental: These experiments were performed at least five times with analogous results.
Purified EN-RAGE was radiolabelled using ^125-I and Iodobeads (Pierce) to a specific activity of approximately 5,000 cpm/ng. Radioligand binding assays were performed in 96-well dishes to which had been adsorbed either purified human RAGE (5 µg/well) or bovine aortic endothelial cells. In the former case, after adsorption of human soluble RAGE to the plastic dish in carbonate/bicarbonate buffer (pH 9.3) overnight, wells were then washed with PBS containing Tween 20 (0.05%). Unoccupied binding sites on the plastic wells were blocked by incubation with PBS containing calcium/magnesium and bovine serum albumin (1%) for two hours at 37° C. […] Solution was then aspirated from the wells and counted in a gamma counter (LKB, Gaithersburg, Md.). […] Equilibrium binding data were analyzed according to the equation of Klotz and Hunston (Klotz and Hunston, 1984): B=nKA/1+KA, where B=specifically bound ligand (total binding, wells incubated with tracer alone, minus nonspecific binding, wells incubated with tracer in the presence of excess unlabelled material), n=sites/cell, K=the […] constant, and A=free ligand concentration) using nonlinear least-squares analysis (Prism; San Diego, Calif.). […]

[8] = molecular target: T1, purified soluble human RAGE (sRAGE), …; assay: radioligand binding, 125-I EN-RAGE ± 50-fold unlabelled EN-RAGE on immobilised human sRAGE
Experimental: Radioligand binding assays were performed employing the indicated concentration of ^125-I EN-RAGE in the presence or absence of excess unlabelled EN-RAGE (50-fold). […] Where indicated, radiolabelled EN-RAGE (100 nM) was incubated with the indicated amount of excess sRAGE two hours prior to binding assay, or wells were preincubated for two hours with the indicated concentration of rabbit nonimmune IgG, or polyclonal monospecific rabbit anti-EN-RAGE IgG or anti-RAGE IgG prior to binding assay and results reported as % maximal specific binding±SD of the mean. These experiments were performed at least five times with analogous results.
Purified EN-RAGE was radiolabelled using ^125-I and Iodobeads (Pierce) to a specific activity of approximately 5,000 cpm/ng. Radioligand binding assays were performed in 96-well dishes to which had been adsorbed either purified human RAGE (5 µg/well) or bovine aortic endothelial cells. In the former case, after adsorption of human soluble RAGE to the plastic dish in carbonate/bicarbonate buffer (pH 9.3) overnight, wells were then washed with PBS containing Tween 20 (0.05%). Unoccupied binding sites on the plastic wells were blocked by incubation with PBS containing calcium/magnesium and bovine serum albumin (1%) for two hours at 37° C. […] Solution was then aspirated from the wells and counted in a gamma counter (LKB, Gaithersburg, Md.). […]

cellular RAGE on human cells (HUVEC, Molt-4 cells, PBMC, Jurkat cells) (human), sequence (Q15109 23-404): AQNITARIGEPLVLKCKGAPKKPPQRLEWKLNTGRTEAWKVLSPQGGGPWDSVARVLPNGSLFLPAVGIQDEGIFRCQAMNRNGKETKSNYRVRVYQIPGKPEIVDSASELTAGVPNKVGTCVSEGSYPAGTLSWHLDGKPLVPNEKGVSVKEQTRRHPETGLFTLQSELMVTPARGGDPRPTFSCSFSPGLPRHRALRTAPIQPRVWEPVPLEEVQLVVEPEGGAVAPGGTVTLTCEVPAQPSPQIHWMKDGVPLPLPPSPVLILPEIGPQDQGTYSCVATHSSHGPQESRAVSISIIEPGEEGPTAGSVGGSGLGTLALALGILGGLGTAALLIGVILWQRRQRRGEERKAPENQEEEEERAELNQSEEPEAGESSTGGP
cellular RAGE on human cells (HUVEC, Molt-4 cells, PBMC, Jurkat cells), sequence (Q15109 23-404): as above
T1 sequence (Q15109 23-342): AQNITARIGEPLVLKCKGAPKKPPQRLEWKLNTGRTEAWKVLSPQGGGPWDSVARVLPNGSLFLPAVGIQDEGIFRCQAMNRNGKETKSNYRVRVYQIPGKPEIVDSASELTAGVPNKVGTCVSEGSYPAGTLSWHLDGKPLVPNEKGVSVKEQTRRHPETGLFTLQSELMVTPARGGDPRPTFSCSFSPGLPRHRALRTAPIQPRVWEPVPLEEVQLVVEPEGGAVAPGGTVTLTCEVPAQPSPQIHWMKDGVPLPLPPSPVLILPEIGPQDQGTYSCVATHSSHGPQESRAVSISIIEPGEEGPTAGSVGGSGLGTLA
RAGE on macrophages / macrophage-like cultured BV2 cells (MP RAGE), sequence (Q62151 23-402 limits assumed): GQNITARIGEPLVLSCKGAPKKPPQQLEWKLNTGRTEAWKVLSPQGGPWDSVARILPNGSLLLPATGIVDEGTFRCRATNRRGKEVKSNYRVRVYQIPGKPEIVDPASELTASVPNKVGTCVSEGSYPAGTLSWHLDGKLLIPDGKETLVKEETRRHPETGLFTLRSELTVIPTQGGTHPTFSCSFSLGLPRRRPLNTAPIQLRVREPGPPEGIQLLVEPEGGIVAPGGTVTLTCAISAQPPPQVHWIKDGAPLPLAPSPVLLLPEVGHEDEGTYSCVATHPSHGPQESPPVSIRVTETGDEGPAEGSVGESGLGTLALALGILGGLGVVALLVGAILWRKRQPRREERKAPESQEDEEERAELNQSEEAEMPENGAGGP
purified soluble human RAGE (sRAGE), prepared from a baculovirus expression system (human), sequence (Q15109 23-342): as the sequence (Q15109 23-342) above

**Q.** Which results are given for “≈12 kDa RAGE-binding polypeptide isolated and purified from bovine lung extract, called EN-RAGE (from UniProt P79105 2-51) (ligand)”?
**A.** adhesion of Molt-4 cells to cultured ECs [1]: 7 fold; expression of cell-surface VCAM-1 on cultured ECs [1]: 4.3 fold; Kd [2]: 75 nM; Kd [3]: 75 nM; Kd [4]: 75 nM

B1: ≈23 kDa polypeptide from bovine lung extract, identified as amphoterin (ligand, UniProt P10103 2-215, looked up)
chain: GKGDPKKPRGKMSSYAFFVQTCREEHKKKHPDASVNFSEFSKKCSERWKTMSAKEKGKFEDMAKADKARYEREMKTYIPPKGETKKKFKDPNAPKRPPSAFFLFCSEYRPKIKGEHPGLSIGDVAKKLGEMWNNTAADDKQPYEKKAAKLKEKYEKDIAAYRAKGKPDAAKKGVVKAEKSKKKKEEEEDEEDEEDEEEEEDEEDEEEEEDDDDE
notes: The identification is cited to Hori et al., 1995
**Q.** Does B1 bind [5]?
**A.** binds

B2: recombinant bovine EN-RAGE (Extracellular Novel RAGE binding protein), expressed in Sf9 cells from a baculovirus system (ligand)
chain: TKLEDHLEGIINIFHQYSVRVGHFDTLNKRELKQLITKELPKTLQNTKDQPTIDKIFQDLDADKDGAVSFEEFVVLVSRVLKTAHIDIHK
modifications: radiolabelled with 125-I (Iodobeads) in the radioligand binding assays; unlabelled in the cell activation assays
notes: also called 125-I EN-RAGE; radiolabelled EN-RAGE
**Q.** Which “nuclear NF-kB in HUVEC (EMSA, densitometry)” value [6] does the source give for B2 here?
**A.** 5 fold

**Q.** And the Kd [7]?
**A.** ~90.3 nM

**Q.** What about the Kd [8] of the same molecule?
**A.** ~91 nM

B3: purified S100B from human brain (Calbiochem-Novabiochem) (ligand, UniProt P04271 2-92, looked up)
chain: SELEKAMVALIDVFHQYSGREGDKHKLKKSELKELINNELSHFLEEIKEQEVVDKVMETLDNDGDGECDFQEFMAFVAMVTTACHEFFEHE
**Q.** B3 was tested. Which “nuclear translocation of NF-kB in HUVEC (EMSA)” value [6] did it give?
**A.** ~13.9 fold

Reference: US6555340
